Reference: patent CN116178550A (BEIJING DONGFANG BIOTECH CO LTD, dated 2023)

Assays:
[1] = molecular target: T1, 人单核细胞白血病细胞(THP-1)表面LILRB4 (human, UniProt Q8NHJ6 22-448); experiment: cell-based or functional assay
LILRA5 [2] = molecular target: T2, LILRA5 (UniProt A6NI73 42-268, limits assumed); experiment: ELISA, protein coated 100 ng/well, MF-I at 50 μg/mL
LILRA6 [3] = molecular target: T3, LILRA6 (UniProt Q6PI73 24-447, limits assumed); experiment: as above
LILRB1 [4] = molecular target: T4, LILRB1 (UniProt Q8NHL6 24-461, limits assumed); experiment: as above
LILRB2 [5] = molecular target: T5, LILRB2 (UniProt Q8N423 22-460, limits assumed); experiment: as above
LILRB3 [6] = molecular target: T6, LILRB3 (UniProt O75022 24-443, limits assumed); experiment: as above
LILRB5 [7] = molecular target: T7, LILRB5 (UniProt O75023 24-458, limits assumed); experiment: as above
LILRB4抗原 (人LILRB4蛋白胞外段) [8] = molecular target: T8, LILRB4抗原 (人LILRB4蛋白胞外段) (human, UniProt Q8NHJ6 22-259); experiment: as above
T8 construct: extracellular domain; also called 白细胞免疫球蛋白样受体亚家族B成员4

LILRA1 [9] = molecular target: T9, LILRA1 (UniProt O75019 17-461, limits assumed); experiment: as above
LILRA2 [10] = molecular target: T10, LILRA2 (UniProt Q8N149 24-449, limits assumed); experiment: as above
LILRA3 [11] = molecular target: T11, LILRA3 (UniProt Q8N6C8 24-439); experiment: as above
LILRA4 [12] = molecular target: T12, LILRA4 (UniProt P59901 24-446, limits assumed); experiment: as above
LILRA5 [13] = molecular target: T2, LILRA5; experiment: ELISA, protein coated 100 ng/well, Goat Anti-Mouse IgG-HRP
LILRA6 [14] = molecular target: T3, LILRA6; experiment: as above
LILRB1 [15] = molecular target: T4, LILRB1; experiment: as above
LILRB2 [16] = molecular target: T5, LILRB2; experiment: as above
LILRB3 [17] = molecular target: T6, LILRB3; experiment: as above
LILRB5 [18] = molecular target: T7, LILRB5; experiment: as above
LILRA1 [19] = molecular target: T9, LILRA1; experiment: as above
LILRA2 [20] = molecular target: T10, LILRA2; experiment: as above
LILRA3 [21] = molecular target: T11, LILRA3; experiment: as above
LILRA4 [22] = molecular target: T12, LILRA4; experiment: as above
LILRB4抗原 (人LILRB4蛋白胞外段) [23] = molecular target: T8, LILRB4抗原 (人LILRB4蛋白胞外段); experiment: ELISA, LILRB4 coated 100 ng/well, Goat Anti-Mouse IgG-HRP
[24] = molecular target: T1, 人单核细胞白血病细胞(THP-1)表面LILRB4; experiment: flow cytometry on THP-1 cells, competition with 0.4 μg/mL FITC-labelled ApoE

T7 sequence (O75023 24-458 limits assumed): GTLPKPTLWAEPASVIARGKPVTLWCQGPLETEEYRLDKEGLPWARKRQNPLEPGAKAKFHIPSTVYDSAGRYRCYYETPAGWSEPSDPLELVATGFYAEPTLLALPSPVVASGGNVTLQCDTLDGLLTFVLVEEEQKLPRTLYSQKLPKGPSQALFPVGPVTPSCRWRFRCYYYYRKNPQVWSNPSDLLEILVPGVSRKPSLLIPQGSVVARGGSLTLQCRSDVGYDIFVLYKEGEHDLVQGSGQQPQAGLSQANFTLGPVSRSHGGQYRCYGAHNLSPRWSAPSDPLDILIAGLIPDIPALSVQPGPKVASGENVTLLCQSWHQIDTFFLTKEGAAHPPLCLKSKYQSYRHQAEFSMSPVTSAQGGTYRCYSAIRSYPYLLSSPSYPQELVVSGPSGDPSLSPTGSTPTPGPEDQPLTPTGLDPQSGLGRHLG
T11 sequence (Q8N6C8 24-439 limits assumed): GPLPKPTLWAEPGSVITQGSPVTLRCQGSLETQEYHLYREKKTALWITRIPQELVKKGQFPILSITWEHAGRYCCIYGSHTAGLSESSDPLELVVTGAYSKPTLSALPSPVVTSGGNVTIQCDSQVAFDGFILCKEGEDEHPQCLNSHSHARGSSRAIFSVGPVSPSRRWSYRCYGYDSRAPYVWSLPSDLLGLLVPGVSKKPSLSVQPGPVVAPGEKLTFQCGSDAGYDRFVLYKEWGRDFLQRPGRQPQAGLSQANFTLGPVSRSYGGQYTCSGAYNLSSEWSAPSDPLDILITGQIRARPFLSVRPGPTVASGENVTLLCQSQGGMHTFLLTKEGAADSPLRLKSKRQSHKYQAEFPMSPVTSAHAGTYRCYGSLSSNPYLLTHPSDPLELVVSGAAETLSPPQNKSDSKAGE
T3 sequence (Q6PI73 24-447 limits assumed): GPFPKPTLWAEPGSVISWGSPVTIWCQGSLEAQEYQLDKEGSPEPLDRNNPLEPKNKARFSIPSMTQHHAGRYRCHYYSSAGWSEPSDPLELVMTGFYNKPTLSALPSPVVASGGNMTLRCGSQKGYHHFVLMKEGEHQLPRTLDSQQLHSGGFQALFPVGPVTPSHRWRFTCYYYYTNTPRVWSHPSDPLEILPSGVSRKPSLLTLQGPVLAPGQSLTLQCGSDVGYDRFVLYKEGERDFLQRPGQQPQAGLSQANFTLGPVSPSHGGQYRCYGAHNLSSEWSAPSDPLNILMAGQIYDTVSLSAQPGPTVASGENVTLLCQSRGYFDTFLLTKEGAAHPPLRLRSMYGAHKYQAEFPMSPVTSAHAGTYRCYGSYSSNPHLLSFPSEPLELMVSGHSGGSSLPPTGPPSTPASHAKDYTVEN
T12 sequence (P59901 24-446 limits assumed): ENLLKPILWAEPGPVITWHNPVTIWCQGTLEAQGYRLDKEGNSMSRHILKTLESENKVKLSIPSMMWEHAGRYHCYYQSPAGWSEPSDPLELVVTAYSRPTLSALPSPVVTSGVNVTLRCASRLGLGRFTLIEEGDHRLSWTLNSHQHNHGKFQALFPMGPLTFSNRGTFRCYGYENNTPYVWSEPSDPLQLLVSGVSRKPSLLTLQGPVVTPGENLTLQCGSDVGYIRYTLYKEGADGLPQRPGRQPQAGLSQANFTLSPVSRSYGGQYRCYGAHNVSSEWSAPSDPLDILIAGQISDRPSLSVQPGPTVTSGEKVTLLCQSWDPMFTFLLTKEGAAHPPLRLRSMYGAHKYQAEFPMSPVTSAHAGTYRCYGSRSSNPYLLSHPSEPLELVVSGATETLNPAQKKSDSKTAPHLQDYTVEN
T4 sequence (Q8NHL6 24-461 limits assumed): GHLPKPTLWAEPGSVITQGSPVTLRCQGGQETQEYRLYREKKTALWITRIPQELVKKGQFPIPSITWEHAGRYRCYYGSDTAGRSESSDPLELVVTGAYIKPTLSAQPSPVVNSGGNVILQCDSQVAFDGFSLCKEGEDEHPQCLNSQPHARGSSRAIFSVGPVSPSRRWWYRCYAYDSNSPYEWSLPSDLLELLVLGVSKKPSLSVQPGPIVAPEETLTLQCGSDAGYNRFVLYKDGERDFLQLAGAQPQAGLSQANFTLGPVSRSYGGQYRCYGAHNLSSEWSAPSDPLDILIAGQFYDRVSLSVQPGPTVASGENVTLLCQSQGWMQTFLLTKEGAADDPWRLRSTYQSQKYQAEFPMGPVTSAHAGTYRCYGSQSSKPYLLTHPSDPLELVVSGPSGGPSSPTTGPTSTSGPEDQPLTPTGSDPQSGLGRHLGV
T10 sequence (Q8N149 24-449 limits assumed): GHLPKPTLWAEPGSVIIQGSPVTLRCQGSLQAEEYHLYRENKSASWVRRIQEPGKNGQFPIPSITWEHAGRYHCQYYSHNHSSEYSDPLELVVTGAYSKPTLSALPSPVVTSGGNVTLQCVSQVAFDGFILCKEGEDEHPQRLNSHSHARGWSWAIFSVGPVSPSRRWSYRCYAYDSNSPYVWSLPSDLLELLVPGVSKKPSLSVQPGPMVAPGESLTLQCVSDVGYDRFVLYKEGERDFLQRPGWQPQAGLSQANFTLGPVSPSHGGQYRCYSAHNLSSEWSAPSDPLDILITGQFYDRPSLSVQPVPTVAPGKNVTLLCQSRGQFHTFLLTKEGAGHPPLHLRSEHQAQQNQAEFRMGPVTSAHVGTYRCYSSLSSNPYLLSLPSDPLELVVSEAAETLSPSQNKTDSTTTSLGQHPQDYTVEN
T6 sequence (O75022 24-443 limits assumed): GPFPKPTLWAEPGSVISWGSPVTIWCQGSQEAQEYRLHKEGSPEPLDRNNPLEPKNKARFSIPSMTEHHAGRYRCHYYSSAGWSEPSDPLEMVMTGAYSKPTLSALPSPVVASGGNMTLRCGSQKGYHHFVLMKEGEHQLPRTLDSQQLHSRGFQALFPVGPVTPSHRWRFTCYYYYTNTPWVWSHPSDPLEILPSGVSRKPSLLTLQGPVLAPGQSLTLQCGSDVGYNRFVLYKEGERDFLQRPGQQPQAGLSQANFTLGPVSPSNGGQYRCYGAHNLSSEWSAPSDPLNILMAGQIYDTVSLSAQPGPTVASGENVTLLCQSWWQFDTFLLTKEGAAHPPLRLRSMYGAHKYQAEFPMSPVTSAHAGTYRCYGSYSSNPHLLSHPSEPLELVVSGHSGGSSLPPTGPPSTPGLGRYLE
T9 sequence (O75019 17-461 limits assumed): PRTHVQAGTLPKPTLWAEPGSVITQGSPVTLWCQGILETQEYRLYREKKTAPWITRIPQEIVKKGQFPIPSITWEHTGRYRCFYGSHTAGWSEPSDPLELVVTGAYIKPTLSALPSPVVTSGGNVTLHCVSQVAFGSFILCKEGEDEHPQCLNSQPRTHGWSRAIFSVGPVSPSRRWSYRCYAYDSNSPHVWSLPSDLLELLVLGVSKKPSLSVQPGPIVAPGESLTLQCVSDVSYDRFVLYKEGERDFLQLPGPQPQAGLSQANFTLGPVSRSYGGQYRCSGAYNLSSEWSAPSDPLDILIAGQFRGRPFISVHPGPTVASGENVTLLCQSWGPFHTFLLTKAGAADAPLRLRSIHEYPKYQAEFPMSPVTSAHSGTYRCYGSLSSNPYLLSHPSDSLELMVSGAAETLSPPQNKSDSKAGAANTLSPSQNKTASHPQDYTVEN
T2 sequence (A6NI73 42-268 limits assumed): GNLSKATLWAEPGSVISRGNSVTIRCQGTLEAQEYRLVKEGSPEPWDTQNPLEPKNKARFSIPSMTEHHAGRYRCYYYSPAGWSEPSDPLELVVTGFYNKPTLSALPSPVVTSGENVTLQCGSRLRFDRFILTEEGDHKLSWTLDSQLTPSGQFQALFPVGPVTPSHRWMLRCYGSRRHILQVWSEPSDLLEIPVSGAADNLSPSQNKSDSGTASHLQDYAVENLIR
T5 sequence (Q8N423 22-460 limits assumed): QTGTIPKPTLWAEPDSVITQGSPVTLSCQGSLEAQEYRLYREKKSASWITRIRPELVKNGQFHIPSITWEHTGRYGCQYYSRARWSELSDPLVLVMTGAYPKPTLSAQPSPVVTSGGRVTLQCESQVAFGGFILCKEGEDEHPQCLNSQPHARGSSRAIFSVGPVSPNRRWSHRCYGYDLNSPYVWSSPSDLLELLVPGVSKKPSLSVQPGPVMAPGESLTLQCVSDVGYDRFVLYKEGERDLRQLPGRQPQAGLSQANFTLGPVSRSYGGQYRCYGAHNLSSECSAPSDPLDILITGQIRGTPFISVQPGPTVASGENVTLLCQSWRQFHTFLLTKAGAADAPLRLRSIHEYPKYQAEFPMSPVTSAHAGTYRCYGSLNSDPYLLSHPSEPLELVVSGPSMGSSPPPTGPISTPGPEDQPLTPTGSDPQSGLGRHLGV

B1: 抗LILRB4单克隆抗体MF-I (full antibody, mouse IgG1 heavy chain constant region and mouse Ck light chain constant region) (antibody, V domains shown)
VH: QVQLEQSGAELVKPGASVKLSCKASGYTFTNYWMHWVKQRHGQGLEWIGEINPSNGRTNYNEKFKTKATLTVDKSSSTAYMQLSSLTSEDSAVYYCAKNYRYDDWAMDYWGQGTSVTVSS
VL: DIVLTQSPSSMYASLGERVTITCKASEDINSYLSWFQQKPGKSPKTLIYRANRLVDGVPSRFSGSGSGQDYSLTISSLEYEDMGIYYCLQYDEIPPTFGAGTKLELKA
notes: also called MF-Ⅰ
With B1 the “IC50(μg/mL), 抑制THP-1分泌ARG1 (arginase activity in the supernatant, with 0.5 μg/mL ApoE)” value [1] was 367 µg/mL, the “OD 450nm/630nm” value (LILRA5 [2]) was 0.012 and the “OD 450nm/630nm” value (LILRA6 [3]) was 0.112. For the same binder, the “OD 450nm/630nm” value (LILRB1 [4]) was 0.123, the “OD 450nm/630nm” value (LILRB2 [5]) was 0.213 and the “OD 450nm/630nm” value (LILRB3 [6]) was 0.18. For the same binder, the “OD 450nm/630nm” value (LILRB5 [7]) was 0.012, the “OD 450nm/630nm” value (LILRB4抗原 (人LILRB4蛋白胞外段) [8]) was 2.3 and the “OD 450nm/630nm” value (LILRA1 [9]) was 0.111. For the same binder, the “OD 450nm/630nm” value (LILRA2 [10]) was 0.036, the “OD 450nm/630nm” value (LILRA3 [11]) was 0.064 and the “OD 450nm/630nm” value (LILRA4 [12]) was 0.014. B1: no binding (tested: 50μg/mL) (LILRA5 [13]); no binding (tested: 50μg/mL) (LILRA6 [14]); no binding (tested: 50μg/mL) (LILRB1 [15]). B1: no binding (tested: 50μg/mL) (LILRB2 [16]); no binding (tested: 50μg/mL) (LILRB3 [17]); no binding (tested: 50μg/mL) (LILRB5 [18]). B1: no binding (tested: 50μg/mL) (LILRA1 [19]); no binding (tested: 50μg/mL) (LILRA2 [20]); no binding (tested: 50μg/mL) (LILRA3 [21]). For the same binder, the binding result (LILRA4 [22]) was “no binding (tested: 50μg/mL)”, the EC50 (LILRB4抗原 (人LILRB4蛋白胞外段) [23]) was 0.406 µg/mL and the IC50 [24] was 10.5 µg/mL.
